In paper PMC4118853, “Phage Orf Family Recombinases: Conservation of Activities and Involvement of the Central Channel in DNA Binding” (PLoS ONE, 2014):
Values joined by “and” are separate entries in the source; they are usually repeats but may differ in a detail not shown here. Equal entries are not always repeated.

Experiments:
[1] = biological target: the molecule itself; experiment: SEC; 1 mg/ml protein on a 24 ml Superose 6HR 10/30 column in 20 mM Tris-HCl pH8, 1 mM EDTA, 0.5 mM DTT, 250 mM KCl
[2] = biological target: T1, E. coli SSB (single-stranded DNA binding protein), wild type (E. coli, UniProt P0AGE0 1-178); experiment: far-Western; purified SSB wt or mutant (0.5-5 µg) separated on 15% SDS-PAGE, blotted to PVDF, probed with 20-30 µg YbcN or Orf fused to MBP or GST; detected with anti-MBP or anti-GST antibodies; settings: both partners purified
T1 construct: also called wt SSB; source: purified as described [13]

[3] = biological target: the molecule itself; experiment: SEC; 1 mg/ml protein on a 24 ml Superose 12 HR 10/30 column in 20 mM Tris-HCl pH 8.0, 1 mM EDTA, 0.5 mM DTT, 150 mM KCl
MBP-YbcN = biological target: T2, MBP-YbcN (Escherichia coli cryptic prophage DLP12 …, UniProt Q47269 1-151); experiment: fluorescence anisotropy; apparent, per dimer; EMSA: 50 mM Tris-HCl pH 8.0, 5 mM EDTA (or 1 mM MgCl2), 1 mM DTT, 5% glycerol, 100 ug/ml BSA, on ice 15 min, 4% PAGE; anisotropy: 100 mM Tris-HCl pH 7.0, 10 nM; settings: protein: recombinant, tags: N-terminal MBP, chain copies: 2
T2 sequence: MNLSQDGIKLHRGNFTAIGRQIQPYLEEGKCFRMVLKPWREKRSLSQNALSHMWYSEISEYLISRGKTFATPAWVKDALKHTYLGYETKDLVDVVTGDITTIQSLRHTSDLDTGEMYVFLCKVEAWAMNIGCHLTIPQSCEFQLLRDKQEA

MBP-Orf Q45A = biological target: T3, MBP-Orf Q45A (Bacteriophage lambda, UniProt P03765 1-146, Q45A); experiment: as above; settings: protein: recombinant, tags: N-terminal MBP, chain copies: 2
T3 sequence: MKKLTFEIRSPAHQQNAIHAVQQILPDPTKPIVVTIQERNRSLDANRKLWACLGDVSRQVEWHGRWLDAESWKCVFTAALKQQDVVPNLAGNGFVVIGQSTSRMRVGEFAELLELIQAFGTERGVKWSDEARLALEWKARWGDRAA

MBP-Orf V106E = biological target: T4, MBP-Orf V106E (Bacteriophage lambda, UniProt P03765 1-146, V106E); experiment: as above; settings: protein: recombinant, tags: N-terminal MBP, chain copies: 2
T4 sequence: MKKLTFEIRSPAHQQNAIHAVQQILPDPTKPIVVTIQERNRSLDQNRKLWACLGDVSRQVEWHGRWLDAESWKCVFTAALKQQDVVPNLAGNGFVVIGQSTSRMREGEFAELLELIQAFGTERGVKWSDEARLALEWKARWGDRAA

MBP-Orf K48A = biological target: T5, MBP-Orf K48A (Bacteriophage lambda, UniProt P03765 1-146, K48A); experiment: as above; settings: protein: recombinant, tags: N-terminal MBP, chain copies: 2
T5 sequence: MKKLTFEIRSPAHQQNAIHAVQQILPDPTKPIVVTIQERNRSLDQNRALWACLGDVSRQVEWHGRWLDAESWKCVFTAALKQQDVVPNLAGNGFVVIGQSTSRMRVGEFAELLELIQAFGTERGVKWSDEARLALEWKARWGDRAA

MBP-Orf W137A = biological target: T6, MBP-Orf W137A (Bacteriophage lambda, UniProt P03765 1-146, W137A); experiment: as above; settings: protein: recombinant, tags: N-terminal MBP, chain copies: 2
T6 sequence: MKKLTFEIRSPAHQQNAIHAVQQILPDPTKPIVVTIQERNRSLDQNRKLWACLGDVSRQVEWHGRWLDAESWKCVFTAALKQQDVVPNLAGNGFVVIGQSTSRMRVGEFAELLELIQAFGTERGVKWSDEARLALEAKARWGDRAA

MBP-Orf W50A = biological target: T7, MBP-Orf W50A (Bacteriophage lambda, UniProt P03765 1-146, W50A); experiment: as above; settings: protein: recombinant, tags: N-terminal MBP, chain copies: 2
T7 sequence: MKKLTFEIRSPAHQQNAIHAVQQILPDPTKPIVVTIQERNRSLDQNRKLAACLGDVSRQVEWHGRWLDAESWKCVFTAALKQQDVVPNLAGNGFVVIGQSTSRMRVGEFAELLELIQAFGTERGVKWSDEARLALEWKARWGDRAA

MBP-Orf [4] = biological target: T8, MBP-Orf (Bacteriophage lambda, UniProt P03765 1-146); experiment: as above; settings: protein: recombinant, tags: N-terminal MBP, chain copies: 2
T8 sequence: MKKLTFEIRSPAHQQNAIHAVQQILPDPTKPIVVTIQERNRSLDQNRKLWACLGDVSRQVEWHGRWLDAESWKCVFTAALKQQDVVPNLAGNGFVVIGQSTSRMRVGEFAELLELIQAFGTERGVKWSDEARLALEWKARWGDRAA

MBP-Orf R103E = biological target: T9, MBP-Orf R103E (Bacteriophage lambda, UniProt P03765 1-146, R103E); experiment: fluorescence anisotropy; dash in table; most severely deficient; EMSA: 50 mM Tris-HCl pH 8.0, 5 mM EDTA (or 1 mM MgCl2), 1 mM DTT, 5% glycerol, 100 ug/ml BSA, on ice 15 min, 4% PAGE; anisotropy: 100 mM Tris-HCl pH 7.0, 10 nM; settings: protein: recombinant, tags: N-terminal MBP, chain copies: 2
T9 sequence: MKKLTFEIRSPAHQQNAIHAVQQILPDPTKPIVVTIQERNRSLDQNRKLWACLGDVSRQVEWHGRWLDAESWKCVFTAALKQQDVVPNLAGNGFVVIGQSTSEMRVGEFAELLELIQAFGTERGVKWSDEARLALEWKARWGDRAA

MBP-Orf [5] = biological target: T8, MBP-Orf; experiment: EMSA; 5 mM EDTA; better than DS60; EMSA: 50 mM Tris-HCl pH 8.0, 5 mM EDTA (or 1 mM MgCl2), 1 mM DTT, 5% glycerol, 100 ug/ml BSA, on ice 15 min, 4% PAGE; anisotropy: 100 mM Tris-HCl pH 7.0, 10 nM; settings: protein: recombinant, tags: N-terminal MBP, chain copies: 2, label: 5'-32P on strand 1, blunt
[6] = label: 3'-fluorescein, single strand
[7] = label: 3'-fluorescein on strand 1, blunt, central 20 nt bubble

T1 sequence (P0AGE0 whole entry, the tested form may be a part): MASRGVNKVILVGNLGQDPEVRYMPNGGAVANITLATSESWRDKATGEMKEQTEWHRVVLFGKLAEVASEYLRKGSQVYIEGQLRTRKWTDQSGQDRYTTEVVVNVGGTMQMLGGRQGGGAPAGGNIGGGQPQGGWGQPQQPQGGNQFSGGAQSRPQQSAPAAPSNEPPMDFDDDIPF

B1: MBP-YbcN (E. coli maltose binding protein fused to the N-terminus of DLP12 YbcN) (natural protein, E. coli (cryptic prophage DLP12), UniProt Q47269 1-151, looked up)
chain: MNLSQDGIKLHRGNFTAIGRQIQPYLEEGKCFRMVLKPWREKRSLSQNALSHMWYSEISEYLISRGKTFATPAWVKDALKHTYLGYETKDLVDVVTGDITTIQSLRHTSDLDTGEMYVFLCKVEAWAMNIGCHLTIPQSCEFQLLRDKQEA
notes: YbcN (orf151), Orf-family protein of E. coli cryptic prophage DLP12; the gene was amplified from AB1157 genomic DNA, forward primer at the ATG; predicted monomer of the MBP fusion 60.4 kDa; Construct in pMALc2; also called DLP12 MBP-YbcN; orf151; source: E. coli DH5α or BL21 (DE3) Rosetta carrying pLB101, purified (amylose; additional stocks amylose and heparin agarose)
stoichiometry N [1]: 2 | binding result [2]: binds

B2: MBP-Orf K48A (natural protein, bacteriophage λ)
chain: MKKLTFEIRSPAHQQNAIHAVQQILPDPTKPIVVTIQERNRSLDQNRALWACLGDVSRQVEWHGRWLDAESWKCVFTAALKQQDVVPNLAGNGFVVIGQSTSRMRVGEFAELLELIQAFGTERGVKWSDEARLALEWKARWGDRAA
notes: Orf (NinB) of bacteriophage λ with K48A; Mutant derivative in pMALc2; One paragraph calls residue 48 Arg48, others Lys48; source: E. coli BL21-AI carrying the pMALc2 construct, purified (amylose) as described [13]
stoichiometry N [3]: 2 | binding result [2]: binds

B3: MBP-Orf Q45A (natural protein, bacteriophage λ)
chain: MKKLTFEIRSPAHQQNAIHAVQQILPDPTKPIVVTIQERNRSLDANRKLWACLGDVSRQVEWHGRWLDAESWKCVFTAALKQQDVVPNLAGNGFVVIGQSTSRMRVGEFAELLELIQAFGTERGVKWSDEARLALEWKARWGDRAA
notes: Orf (NinB) of bacteriophage λ with Q45A; Mutant derivative in pMALc2; source: E. coli BL21-AI carrying the pMALc2 construct, purified (amylose, heparin-agarose)
stoichiometry N [3]: 2 | binding result [2]: binds

B4: MBP-Orf R103E (natural protein, bacteriophage λ)
chain: MKKLTFEIRSPAHQQNAIHAVQQILPDPTKPIVVTIQERNRSLDQNRKLWACLGDVSRQVEWHGRWLDAESWKCVFTAALKQQDVVPNLAGNGFVVIGQSTSEMRVGEFAELLELIQAFGTERGVKWSDEARLALEWKARWGDRAA
notes: Orf (NinB) of bacteriophage λ with R103E; Mutant derivative in pMALc2; source: E. coli BL21-AI carrying the pMALc2 construct, purified (amylose, heparin-agarose)
stoichiometry N [3]: 2 | binding result [2]: binds

B5: MBP-Orf V106E (natural protein, bacteriophage λ)
chain: MKKLTFEIRSPAHQQNAIHAVQQILPDPTKPIVVTIQERNRSLDQNRKLWACLGDVSRQVEWHGRWLDAESWKCVFTAALKQQDVVPNLAGNGFVVIGQSTSRMREGEFAELLELIQAFGTERGVKWSDEARLALEWKARWGDRAA
notes: Orf (NinB) of bacteriophage λ with V106E; Mutant derivative in pMALc2; Tends to form multimers or aggregates; source: E. coli BL21-AI carrying the pMALc2 construct, purified (amylose, heparin-agarose)
stoichiometry N [3]: 2 and 4 | binding result [2]: binds

B6: MBP-Orf W50A (natural protein, bacteriophage λ)
chain: MKKLTFEIRSPAHQQNAIHAVQQILPDPTKPIVVTIQERNRSLDQNRKLAACLGDVSRQVEWHGRWLDAESWKCVFTAALKQQDVVPNLAGNGFVVIGQSTSRMRVGEFAELLELIQAFGTERGVKWSDEARLALEWKARWGDRAA
notes: Orf (NinB) of bacteriophage λ with W50A; Mutant derivative in pMALc2; source: E. coli BL21-AI carrying the pMALc2 construct, purified (amylose, heparin-agarose)
stoichiometry N [3]: 2 | binding result [2]: binds

B7: MBP-Orf W137A (natural protein, bacteriophage λ)
chain: MKKLTFEIRSPAHQQNAIHAVQQILPDPTKPIVVTIQERNRSLDQNRKLWACLGDVSRQVEWHGRWLDAESWKCVFTAALKQQDVVPNLAGNGFVVIGQSTSRMRVGEFAELLELIQAFGTERGVKWSDEARLALEAKARWGDRAA
notes: Orf (NinB) of bacteriophage λ with W137A; Mutant derivative in pMALc2; source: E. coli BL21-AI carrying the pMALc2 construct, purified (amylose) as described [13]
stoichiometry N [3]: 2 | binding result [2]: binds

B8: SS60-fluorescein (ssDNA)
DNA: TTTGGTCTAACTTTACCGCTACTAAATGCCGCGGATTGGTTTCGCTGAATCAGGTTATTA
Kd (MBP-YbcN; [6]): 4600 ± 275 nM | Kd (MBP-Orf Q45A; [6]): 272 ± 20.4 nM | Kd (MBP-Orf V106E; [6]): 522 ± 12.4 nM | Kd (MBP-Orf K48A; [6]): 622 ± 0.7 nM | Kd (MBP-Orf W137A; [6]): 628 ± 99.9 nM | Kd (MBP-Orf W50A; [6]): 3540 ± 288 nM | Kd (MBP-Orf [4]; [6]): 223 ± 72.6 nM | binding result (MBP-Orf R103E; [6]): no binding

B9: BB20-fluorescein (structured_DNA)
DNA 1: TTTGGTCTAACTTTACCGCTACTAAATGCCGCGGATTGGTTTCGCTGAATCAGGTTATTA
DNA 2: TAATAACCTGATTCAGCGAATGACCGATAACGTCCACTTGAGCGGTAAAGTTAGACCAAA
Kd (MBP-YbcN; [7]): 1619 ± 3.2 nM | Kd (MBP-Orf Q45A; [7]): 264 ± 15.2 nM | Kd (MBP-Orf V106E; [7]): 540 ± 73.2 nM | Kd (MBP-Orf K48A; [7]): 551 ± 6.4 nM | Kd (MBP-Orf W137A; [7]): 285 ± 1.9 nM | Kd (MBP-Orf W50A; [7]): 1610 ± 418 nM | Kd (MBP-Orf [4]; [7]): 173 ± 20.9 nM | binding result (MBP-Orf R103E; [7]): no binding

B10: BB5 (structured_DNA)
DNA 1: TTTGGTCTAACTTTACCGCTACTAAATGCCGCGGATTGGTTTCGCTGAATCAGGTTATTA
DNA 2: TAATAACCTGATTCAGCGAAACCAATCGCAACCATTTAGTAGCGGTAAAGTTAGACCAAA
binding result (MBP-Orf [5]; central 5 nt bubble): binds

B11: BB13 (structured_DNA)
DNA 1: TTTGGTCTAACTTTACCGCTACTAAATGCCGCGGATTGGTTTCGCTGAATCAGGTTATTA
DNA 2: TAATAACCTGATTCAGCGAAACATTGTAGGTAAGCTTAGTAGCGGTAAAGTTAGACCAAA
binding result (MBP-Orf [5]; central 13 nt bubble): binds
